Test results published in paper PMC3039378 (The Journal of Biological Chemistry, 2010).

Assays:
[1] = molecular target: SecA_(795Fl), SecA_(A795C) labelled with 5-iodoacetamidofluorescein (E. coli) (UniProt P10408); assay: other fluorescence titration
[2] = molecular target: SecA (wild type) (E. coli) (UniProt P10408)
[3] = molecular target: SecA-SecYEG complex with SecYE_(L106C)G cross-linked (106X, back-to-back dimer) in proteoliposomes (E. coli) (UniProt P10408)
[4] = molecular target: SecA-SecYEG complex with SecYE_(L106C)G uncross-linked (106) in proteoliposomes (E. coli) (UniProt P10408)
cross-linking = molecular target: the molecule itself; assay: cross-linking
[5] = molecular target: T1, SecY subunit (within wild-type SecYEG) (E. coli, UniProt P0AGA2 1-443); assay: cross-linking
T1 sequence: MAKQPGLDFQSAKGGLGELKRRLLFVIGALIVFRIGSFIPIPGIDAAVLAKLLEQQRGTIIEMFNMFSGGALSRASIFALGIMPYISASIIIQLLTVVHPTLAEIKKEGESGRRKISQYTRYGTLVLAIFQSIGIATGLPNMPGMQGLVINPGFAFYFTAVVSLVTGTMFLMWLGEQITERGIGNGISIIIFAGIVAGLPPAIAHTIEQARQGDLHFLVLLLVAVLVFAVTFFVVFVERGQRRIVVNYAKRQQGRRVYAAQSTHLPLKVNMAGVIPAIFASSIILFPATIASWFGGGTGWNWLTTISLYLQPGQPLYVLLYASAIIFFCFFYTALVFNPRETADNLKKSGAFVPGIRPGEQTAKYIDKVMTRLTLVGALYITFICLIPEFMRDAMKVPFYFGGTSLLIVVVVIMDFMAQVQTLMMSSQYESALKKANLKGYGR

[6] = molecular target: SecA-SecYEG complex (wild-type SecYEG in proteoliposomes with SecA) (E. coli, UniProt P10408;P0AGA2;P0AG96;P0AG99)

**Q.** What does the source list for “SecYE_(L106C)G cross-linked (106X), back-to-back dimer (from UniProt P0AGA2;P0AG96;P0AG99) (complex)”?
**A.** Kd [1]: < 1 nM; Kd [2]: 78 nM

**Q.** For “proOmpA (full-length, wild type) (from UniProt P0A910 1-346) (natural protein)”, which Kd [3] is on record?
**A.** 92 nM

**Q.** What about the Kd [4] of the same molecule?
**A.** 93 nM

B1: SecE subunit (within wild-type SecYEG) (natural protein)
chain: MSANTEAQGSGRGLEAMKWVVVVALLLVAIVGNYLYRDIMLPLRALAVVILIAAAGGVALLTTKGKATVAFAREARTEVRKVIWPTRQETLHTTLIVAAVTAVMSLILWGLDGILVRLVSFITGLRF
**Q.** Does B1 bind (cross-linking)?
**A.** binds

**Q.** Does B1 bind [5]?
**A.** binds

B2: proOmpA (full-length, wild type) (natural protein)
chain: MKKTAIAIAVALAGFATVAQAAPKDNTWYTGAKLGWSQYHDTGFINNNGPTHENQLGAGAFGGYQVNPYVGFEMGYDWLGRMPYKGSVENGAYKAQGVQLTAKLGYPITDDLDIYTRLGGMVWRADTKSNVYGKNHDTGVSPVFAGGVEYAITPEIATRLEYQWTNNIGDAHTIGTRPDNGMLSLGVSYRFGQGEAAPVVAPAPAPAPEVQTKHFTLKSDVLFNFNKATLKPEGQAALDQLYSQLSNLDPKDGSVVVLGYTDRIGSDAYNQGLSERRAQSVVDYLISKGIPADKISARGMGESNPVTGNTCDNVKQRAALIDCLAPDRRVEIEVKGIKDVVTQPQA
**Q.** B2 was tested. Which Kd [6] did it give?
**A.** 72 ± 41 nM
